In patent publication US20150147330A1:

Target: human glypican-3 (GPC3), cell-associated (human) (UniProt P51654)
Experiment: flow cytometry on cells expressing native GPC3, MFI titration, Scatchard plot (Prism)

Kd: 0.3 nM
Substance: YP7 (antibody)
